Reference: patent US20260265404A1 (published 2026)
Substitutions are numbered along the chain they refer to.

B1: 2D3 antibody (human CD33V-set antibody clone, hybridoma-derived) (antibody, V domains shown)
VH: EVQLLESGGGLVQPGGSLSLSCAASGFTFSIYAMSWVRQAPGKGLEWVSAISDSGGTTYYADSVKGRFTISRDNSKNMLYLEMNSLRAEDTAIYYCAKRTRYFNGMDVWGQGTTVTVSS
VL: EIVMTQSPATLSLSPGERATLSCRASQSGSSSFLSWYQQKPGQAPRLLIYGASTRATGIPARFSGSGSGTDFTLTISSLQPEDFAVYYCQQDYNLPFTFGPGTKVDIK
B2: 1A9 antibody (human CD33^PAN antibody clone, hybridoma-derived) (antibody, V domains shown)
VH: EVQLVESGGGLVQPGGSLRLSCAASGFTFSIYDMHWVRQATGKGLEWVSAIGTAGDTYYAGSVKGRFTISRENAKNSLYLQMNSLRAGDTAVYYCAREYSGYYFDYWGQGTLVTVSS
VL: AIQMTQSPSSLSASVGDRVTITCRASQDIRNDLGWYQQKPGKAPKILIYGASSLQSGVPSRFSGSGSGTDFTFTISSLQPEDFATYYCLQEYNYPCTFGQGTKLEIK
B3: 1E6 antibody (human CD33^PAN antibody clone, hybridoma-derived) (antibody, V domains shown)
VH: QVQLVESGGGVVQPGRSLRLSCAASGFTFSSYDIHWVRQAPGKGLEWVAVIWYDGSHNYYSDSVKGRFTISRDNSKNTLYLQMNSLRAEDTAVYYCARDYSGSYYDYWGQGTLVTVSS
VL: B2 VL with D28G, I46L, G50A, S53N, F73L, E91D, N93S, C96R, L104V
B4: 1H10 antibody (human CD33^PAN antibody clone, hybridoma-derived) (antibody, V domains shown)
VH: QVQLVQSGAEVKKPGASVKVSCKGSGYIFTSYDMHWVRQAPGQGLEWMGIIDPSGGSTSYAQKFQGRVTMTRDTSMSTVYMELSSLRSEDTAVYYCTRDYSWSYFDYWGQGTLVTVSS
VL: B2 VL with D28G, N31I, D32Y, I46L, G50A, A51T, F73L, E91D, C96W, L104V
B5: 1H8 antibody (human CD33V-set antibody clone, hybridoma-derived) (antibody, V domains shown)
VH: QVQLVESGGGVVQPGGSLRLSCAASGFTFGSYGMHWVRQAPGKGLEWVAVIWYDGSNEYYADSVKGRFTVSRDNSKHTLYLQMNRLRAEDTAVYYCARDLDYDSSGGDYWGQGILVLVSS
VL: EIVLTQSPDFQSVTPKEKVTITCRASQNIGGNLHWYQQKPDQSPKLLIRYATQPFSGVPSRFGGSGSGTDFTLTINSLEAEDAATYYCHQSSSLPLTFGGGTKVEIK
B6: 1D2 antibody (human CD33^PAN antibody clone, hybridoma-derived) (antibody, V domains shown)
VH: B3 VH with H57Q, N58K, S61A
VL: AIQMTQSPSSLSASVGDRVTITCRASQGIRNDLGWYQQKPGKAPELLIYATSSLQSGVPSRFSGSGSGTDFTLIISSLQPEDFATYYCLQDYSYPRTFGQGTKVEIK
B7: 1B9 antibody (human CD33^PAN antibody clone, hybridoma-derived) (antibody, V domains shown)
VH: B3 VH with T28I, Y105F
VL: B6 VL with G28D, Q37L, K39R, E45K, T51A, I74T, K103T

Molecular target: T1, human full-length CD33 (CD33^FL) (UniProt P20138 18-364)
T1 sequence (P20138 18-364): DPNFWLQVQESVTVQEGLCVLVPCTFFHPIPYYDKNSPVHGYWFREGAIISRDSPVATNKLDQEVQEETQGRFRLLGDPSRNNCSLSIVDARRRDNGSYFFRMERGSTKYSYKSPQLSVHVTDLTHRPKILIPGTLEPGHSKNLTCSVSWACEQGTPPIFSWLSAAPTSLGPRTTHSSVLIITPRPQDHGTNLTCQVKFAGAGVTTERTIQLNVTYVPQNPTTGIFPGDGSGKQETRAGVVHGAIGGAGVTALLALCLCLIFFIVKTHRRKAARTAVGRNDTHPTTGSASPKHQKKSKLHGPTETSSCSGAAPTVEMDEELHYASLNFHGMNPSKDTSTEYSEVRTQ
Assay: SPR (Carterra); 1 µg/mL

Kd [nM]	Binder
18	B1
36	B2
67	B3
13	B4
24	B5

Molecular target: T1, human full-length CD33 (CD33^FL)
Assay: SPR (Biacore T100)

Kd [nM]	Binder
4.89	B1
3.71	B4

Molecular target: T1, human full-length CD33 (CD33^FL)
Assay: SPR (Carterra); 4 µg/mL

Kd [nM]	Binder
27	B1
130	B2
78	B3
42	B4
40	B5

Molecular target: T1, human full-length CD33 (CD33^FL)
Assay: SPR (Carterra); hybridoma supernatant

Kd [nM]	Binder
116	B6
67	B2
69	B3
112	B4
77	B7
